Each block holds one molecule with its values, some of them ahead of it.
Tests used:
[1] = target: T1, BGL3 (Clavispora sp. NRRL Y-50464, UniProt A0A141S029); experiment: pNPG hydrolysis, absorbance at […] nm; assay type: biochemical; details: product inhibition; substrate pNPG; 100 mM citrate buffer, optimal pH and temperature (pH 5, 55°C); read-out: K i (mM) (against glucose)
T1 construct: C-terminal His tag, vector pPICZalphaB, expressed in Pichia X33; partially purified by Ni-NTA; GH3
T1 sequence (A0A141S029 1-837): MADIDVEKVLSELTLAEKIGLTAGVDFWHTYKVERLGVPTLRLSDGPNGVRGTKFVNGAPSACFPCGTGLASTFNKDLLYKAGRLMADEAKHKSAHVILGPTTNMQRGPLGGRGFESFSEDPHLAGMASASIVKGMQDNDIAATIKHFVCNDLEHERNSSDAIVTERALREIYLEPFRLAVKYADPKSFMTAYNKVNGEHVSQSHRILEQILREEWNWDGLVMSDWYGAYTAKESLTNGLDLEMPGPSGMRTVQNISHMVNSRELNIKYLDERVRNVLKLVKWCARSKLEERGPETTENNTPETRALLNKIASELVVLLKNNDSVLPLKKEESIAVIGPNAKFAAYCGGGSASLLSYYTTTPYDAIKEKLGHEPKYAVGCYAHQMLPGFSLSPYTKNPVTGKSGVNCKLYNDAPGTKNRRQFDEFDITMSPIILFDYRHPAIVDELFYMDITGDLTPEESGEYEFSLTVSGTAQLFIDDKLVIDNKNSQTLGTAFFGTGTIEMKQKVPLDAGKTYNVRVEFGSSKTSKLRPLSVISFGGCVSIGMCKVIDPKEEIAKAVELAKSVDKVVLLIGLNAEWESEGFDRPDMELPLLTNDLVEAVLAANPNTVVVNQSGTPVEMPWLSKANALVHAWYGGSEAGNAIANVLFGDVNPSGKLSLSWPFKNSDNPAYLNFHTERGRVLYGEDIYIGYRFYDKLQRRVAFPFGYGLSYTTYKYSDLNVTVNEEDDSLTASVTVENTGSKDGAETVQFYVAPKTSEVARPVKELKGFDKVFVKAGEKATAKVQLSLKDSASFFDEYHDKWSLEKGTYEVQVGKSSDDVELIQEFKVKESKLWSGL

[2] = target: T2, BGL2 (Clavispora sp. NRRL Y-50464, UniProt A0A141S030); experiment: pNPG hydrolysis, absorbance at […] nm; assay type: biochemical; details: product inhibition; substrate pNPG; 100 mM citrate buffer, optimal pH and temperature (pH 5, 50°C); read-out: K i (mM) (against glucose)
T2 construct: C-terminal His tag, vector pPICZalphaA, expressed in Pichia X33; partially purified by Ni-NTA; GH3
T2 sequence (A0A141S030 1-804): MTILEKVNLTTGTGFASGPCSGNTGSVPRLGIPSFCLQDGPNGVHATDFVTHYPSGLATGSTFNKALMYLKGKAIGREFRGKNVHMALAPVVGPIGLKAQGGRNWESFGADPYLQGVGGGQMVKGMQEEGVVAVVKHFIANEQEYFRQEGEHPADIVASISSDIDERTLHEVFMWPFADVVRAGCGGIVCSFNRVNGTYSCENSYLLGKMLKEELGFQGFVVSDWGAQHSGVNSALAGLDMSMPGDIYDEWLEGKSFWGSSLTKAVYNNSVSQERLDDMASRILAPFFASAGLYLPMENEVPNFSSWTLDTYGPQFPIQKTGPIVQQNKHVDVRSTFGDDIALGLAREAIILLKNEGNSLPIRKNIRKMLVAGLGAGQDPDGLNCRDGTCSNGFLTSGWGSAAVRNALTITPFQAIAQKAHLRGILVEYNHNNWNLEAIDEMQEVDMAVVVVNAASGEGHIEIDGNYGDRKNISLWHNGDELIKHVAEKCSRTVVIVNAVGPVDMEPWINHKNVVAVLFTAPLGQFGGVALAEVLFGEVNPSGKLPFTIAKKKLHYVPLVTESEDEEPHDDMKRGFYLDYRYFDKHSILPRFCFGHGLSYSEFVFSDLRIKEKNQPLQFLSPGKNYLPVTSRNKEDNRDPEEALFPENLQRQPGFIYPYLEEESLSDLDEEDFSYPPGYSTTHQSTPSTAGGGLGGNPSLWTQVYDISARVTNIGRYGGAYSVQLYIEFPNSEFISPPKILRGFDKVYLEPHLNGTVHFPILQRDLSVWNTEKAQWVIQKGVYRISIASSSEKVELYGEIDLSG

[3] = substrate: O=[N+]([O-])c1ccc(O[C@@H]2O[C@H](CO)[C@@H](O)[C@H](O)[C@H]2O)cc1; experiment: purified protein; details: 100 mM citrate buffer

Ki [1]: 38.3 ± 1.15 mM
Ki [2]: 62 ± 2.49 mM
Molecule: OC[C@H]1OC(O)[C@H](O)[C@@H](O)[C@@H]1O (stereo partly shown) [glucose]

B1: BGL3 (Clavispora sp. NRRL Y-50464) (protein)
chain: T1 sequence (A0A141S029 1-837)
Km [3]: 0.18 ± 0.02 mM
Vmax [3]: 1.63 µmol/min/mg
kcat [3]: 1.4 s⁻¹
kcat/Km [3]: 7710 M⁻¹ s⁻¹

B2: BGL2 (Clavispora sp. NRRL Y-50464) (protein)
chain: T2 sequence (A0A141S030 1-804)
Km [3]: 0.08 ± 0.01 mM
Vmax [3]: 5.27 µmol/min/mg
kcat [3]: 9.13 s⁻¹
kcat/Km [3]: 114000 ± 1570 M⁻¹ s⁻¹
